Blank lines part the entries; values can stand above or below the binder they belong to.
Key:
[1] = biological target: T1, Recombinant Human ErbB3/FC Chimera-His tag (human, UniProt P21860 20-643); assay: SPR (Biacore), C-terminal VD;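 note: surface plasmon resonance with DVD-Ig proteins captured on an anti-IgG chip and recombinant antigen flowed over in HBS-EP buffer, Langmuir global fit, KD taken as koff/kon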
T1 construct: bought reagent
Protocol: The BIACORE assay (Biacore, Inc, Piscataway, N.J.) determined the affinity of antibodies or DVD-Ig proteins with kinetic measurements of on-rate and off-rate constants. Binding of antibodies or DVD-Ig proteins to a target antigen (for example, a purified recombinant target antigen) was determined by surface plasmon resonance-based measurements with a Biacore® 1000 or 3000 instrument (Biacore AB, Uppsala. Sweden) using running HBS-EP (10 mM HEPES [pH 7.4], 150 mM NaCl, 3 mM EDTA, and 0.005% surfactant P20) at 25° C. […] For example, approximately 5000 RU of goat anti-mouse IgG, (Fcγ), fragment specific polyclonal antibody (Pierce Biotechnology Inc, Rockford, Ill.) diluted in 10 mM sodium acetate (pH 4.5) was directly immobilized across a CM5 research grade biosensor chip using a standard amine coupling kit according to manufacturer's instructions and procedures at 25 μg/ml. Unreacted moieties on the biosensor surface were blocked with ethanolamine. Modified carboxymethyl dextran surface in flowcell 2 and 4 was used as a reaction surface. Unmodified carboxymethyl dextran without goat anti-mouse IgG in flow cell 1 and 3 was used as the reference surface. For kinetic analysis, rate equations derived from the 1:1 Langmuir binding model were fitted simultaneously to association and dissociation phases of all eight injections (using global fit analysis) with the use of Biaevaluation 4.0.1 software. Purified antibodies or DVD-Ig proteins were diluted in HEPES-buffered saline for capture across goat anti-mouse IgG specific reaction surfaces. Antibodies or DVD-Ig proteins to be captured as a ligand (25 μg/ml) were injected over reaction matrices at a flow rate of 5 μl/minute. The association and dissociation rate constants, kₒₙ (M⁻¹s⁻¹) and koff (s⁻¹) were determined under a continuous flow rate of 25 μl/minute. Rate constants were derived by making kinetic binding measurements at different antigen concentrations ranging from 10-200 nM. The equilibrium dissociation constant (M) of the reaction between antibodies or DVD-Ig proteins and the target antigen was then calculated from the kinetic rate constants by the following formula: KD=koff/kₒₙ. Binding was recorded as a function of time and kinetic rate constants were calculated.

[2] = biological target: T2, Recombinant Human MSP Receptor ECD-His tag (human, UniProt Q04912 25-957); assay: SPR (Biacore), N-terminal VD;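 note: capture of antibodies or DVD-Ig proteins on an anti-mouse IgG chip surface, recombinant antigen injected at 10–200 nM in HBS-EP running buffer at 25 °C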
T2 construct: extracellular domain; bought reagent; also called RON

[3] = biological target: T3, ErbB3 on the cell surface (human, UniProt P21860 20-1342); assay: flow cytometry on cells, 2 ug/mL, N-terminal VD;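 note: cells stained for 30 to 60 min on ice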
T3 construct: whole, on cells
Protocol: (§1) Stable cell lines overexpressing a cell-surface antigen of interest or human tumor cell lines were harvested from tissue culture flasks and resuspended in phosphate buffered saline (PBS) containing 5% fetal bovine serum (PBS/FBS). Prior to staining, human tumor cells were incubated on ice with (100 μl) human IgG at 5 μg/ml in PBS/FCS. 1-5×10⁵ cells were incubated with antibody or DVD-Ig (2 μg/mL) in PBS/FBS for 30-60 minutes on ice. […] After 30 minutes incubation on ice, cells were washed twice and resuspended in PBS/FBS. Fluorescence was measured using a Becton Dickinson FACSCalibur (Becton Dickinson, San Jose, Calif.).
(§2) The geometric mean is the n root of the multiplication product of n fluorescent signals (a1×a2×a3 . . . an). With log-transformed data the geometric mean is used to normalize the weighting of the data distribution.

[4] = biological target: T3, ErbB3 on the cell surface; assay: flow cytometry on cells, 2 ug/mL;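 note: cells stained for 30 to 60 min on ice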
Protocol: as §1, §2

[5] = biological target: T3, ErbB3 on the cell surface; assay: flow cytometry on cells, 2 ug/mL, C-terminal VD;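 note: cells stained for 30 to 60 min on ice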
Protocol: as §1, §2

EGFR on the cell surface [6] = biological target: T4, EGFR on the cell surface (human, UniProt P00533 25-1210); assay: flow cytometry on cells, 2 ug/mL, N-terminal VD;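 note: cells stained for 30 to 60 min on ice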
T4 construct: whole, on cells
Protocol: as §1, §2

EGFR on the cell surface [7] = biological target: T4, EGFR on the cell surface; assay: flow cytometry on cells, 2 ug/mL, C-terminal VD;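 note: cells stained for 30 to 60 min on ice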
Protocol: as §1, §2

B1: DVD2322 (bispecific antibody)
VH: EVQLVQSGGGLVKPGGSLRLSCAASGFTFSSYAMHWVRQAPGKGLEWVAVISYDGSNKYYADSVKGRFTISRDNSKNTLYLQMNSLRAEDTAVYYCARFSGWPNNYYYYGMDVWGQGTTVTVSSASTKGPQVQLQQWGAGLLKPSETLSLTCAVYGGSFSGYYWSWIRQPPGKGLEWIGEINHSGSTNYNPSLKSRVTISVETSKNQFSLKLSSVTAADTAVYYCARDKWTWYFDLWGRGTLVTVSS
VL: DVVMTQSPLSLPVTPGEPASISCRSSQSLLHSNGFNYVDWYLQKPGQSPHLLIYFGSYRASGVPDRFSGSGSGTDFTLKISRVEAEDVGVYYCMQALQTPPWTFGQGTKVEIRRTVAAPDIEMTQSPDSLAVSLGERATINCRSSQSVLYSSSNRNYLAWYQQNPGQPPKLLIYWASTRESGVPDRFSGSGSGTDFTLTISSLQAEDVAVYYCQQYYSTPRTFGQGTKVEIK
notes: DVD-Ig, outer AB005 / inner AB062
binding result [1]: no binding (tested: 10-200 nM)
Kd [2]: 17 nM
koff [2]: 0.00087 s⁻¹
kon [2]: 51000 M⁻¹ s⁻¹

B2: DVD2293 (bispecific antibody)
VH: EVQLVESGGGLVQPGGSLRLSCAASGFTFSIYSMNWVRQAPGKGLEWVSYISSSSSTIYYADSVKGRFTISRDNAKNSLYLQMNSLRDEDTAVYYCARDRGDFDAFDIWGQGTMVTVSSASTKGPEVQLVESGGGLVQPGGSLRLSCAASGFSLTNYGVHWVRQAPGKGLEWLGVGWSGGNTDYNTPFTSRLTINKDNSKNTVYLQMNSLRAEDTAVYYCARALTWYDYEFAYWGQGTLVTVSS
VL: DIQMTQSPSSLSASVGDRVTITCQASQDITNYLNWYQQKPGKAPKLLIYDASNLETGVPSRFSGSGSGTDFTFTISSLQPEDIATYNCQQCENFPITFGQGTRLEIKRTVAAPDILLTQSPGTLSLSPGERATLSCRASQSIYTNIHWYQQKPGQAPRLLIKYASESISGIPDRFSGSGSGTDFTLTISRLEPEDFAVYYCQQNLNWPTTFGQGTKLEIK
notes: DVD-Ig, outer AB063 / inner AB400
GEO MEAN [3]: 135

B3: DVD2320 (bispecific antibody)
VH: EVQLVQSGGGLVKPGGSLRLSCAASGFTFSSYAMHWVRQAPGKGLEWVAVISYDGSNKYYADSVKGRFTISRDNSKNTLYLQMNSLRAEDTAVYYCARFSGWPNNYYYYGMDVWGQGTTVTVSSASTKGPEVQLLESGGGLVQPGGSLRLSCAASGFTFSHYVMAWVRQAPGKGLEWVSSISSSGGWTLYADSVKGRFTISRDNSKNTLYLQMNSLRAEDTAVYYCTRGLKMATIFDYWGQGTLVTVSS
VL: DVVMTQSPLSLPVTPGEPASISCRSSQSLLHSNGFNYVDWYLQKPGQSPHLLIYFGSYRASGVPDRFSGSGSGTDFTLKISRVEAEDVGVYYCMQALQTPPWTFGQGTKVEIRRTVAAPQSALTQPASVSGSPGQSITISCTGTSSDVGSYNVVSWYQQHPGKAPKLIIYEVSQRPSGVSNRFSGSKSGNTASLTISGLQTEDEADYYCCSYAGSSIFVIFGGGTKVTVL
notes: DVD-Ig, outer AB005 / inner AB116
binding result [1]: no binding (tested: 10-200 nM)
Kd [2]: 25 nM
koff [2]: 0.00094 s⁻¹
kon [2]: 37000 M⁻¹ s⁻¹

B4: AB063 (antibody, V domains shown)
VH: EVQLVESGGGLVQPGGSLRLSCAASGFTFSIYSMNWVRQAPGKGLEWVSYISSSSSTIYYADSVKGRFTISRDNAKNSLYLQMNSLRDEDTAVYYCARDRGDFDAFDIWGQGTMVTVSS
VL: DIQMTQSPSSLSASVGDRVTITCQASQDITNYLNWYQQKPGKAPKLLIYDASNLETGVPSRFSGSGSGTDFTFTISSLQPEDIATYNCQQCENFPITFGQGTRLEIKR
notes: parent antibody
GEO MEAN [4]: 128

B7: DVD2334 (bispecific antibody)
VH: QVQLQESGPGLVKPSEILSLTCTVSGGSISSHYWSWVRQPPGKGLEWIGYIYYSGSTNYNPSLKSRVTISVDTSKNQFSLNLSSVTAADTAVYYCARIPNYYDRSGYYPGYWYFDLWGRGTLVTVSSASTKGPQVQLQQWGAGLLKPSETLSLTCAVYGGSFSGYYWSWIRQPPGKGLEWIGEINHSGSTNYNPSLKSRVTISVETSKNQFSLKLSSVTAADTAVYYCARDKWTWYFDLWGRGTLVTVSS
VL: QAVLTQPSSLSAPPGASASLTCTLRSGFNVDSYRISWYQQKPGSPPQYLLRYKSDSDKQQGSGVPSRFSGSKDASANAGILLISGLQSEDEADYYCMIWHSSAWVFGGGTKLTVLRQPKAAPDIEMTQSPDSLAVSLGERATINCRSSQSVLYSSSNRNYLAWYQQNPGQPPKLLIYWASTRESGVPDRFSGSGSGTDFTLTISSLQAEDVAVYYCQQYYSTPRTFGQGTKVEIK
notes: DVD-Ig, outer AB034 / inner AB062
binding result [1]: no binding (tested: 10-200 nM)
Kd [2]: 4.9 nM

B8: DVD2296 (bispecific antibody)
VH: EVQLVESGGGLVQPGGSLRLSCAASGFSLTNYGVHWVRQAPGKGLEWLGVGWSGGNTDYNTPFTSRLTINKDNSKNTVYLQMNSLRAEDTAVYYCARALTWYDYEFAYWGQGTLVTVSSASTKGPQVQLQQWGAGLLKPSETLSLTCAVYGGSFSGYYWSWIRQPPGKGLEWIGEINHSGSTNYNPSLKSRVTISVETSKNQFSLKLSSVTAADTAVYYCARDKWTWYFDLWGRGTLVTVSS
VL: DILLTQSPGTLSLSPGERATLSCRASQSIYTNIHWYQQKPGQAPRLLIKYASESISGIPDRFSGSGSGTDFTLTISRLEPEDFAVYYCQQNLNWPTTFGQGTKLEIKRTVAAPDIEMTQSPDSLAVSLGERATINCRSSQSVLYSSSNRNYLAWYQQNPGQPPKLLIYWASTRESGVPDRFSGSGSGTDFTLTISSLQAEDVAVYYCQQYYSTPRTFGQGTKVEIK
notes: DVD-Ig, outer AB400 / inner AB062
GEO MEAN [5]: 16.6
GEO MEAN (EGFR on the cell surface [6]): 490

B9: AB062 (antibody, V domains shown)
VH: QVQLQQWGAGLLKPSETLSLTCAVYGGSFSGYYWSWIRQPPGKGLEWIGEINHSGSTNYNPSLKSRVTISVETSKNQFSLKLSSVTAADTAVYYCARDKWTWYFDLWGRGTLVTVSS
VL: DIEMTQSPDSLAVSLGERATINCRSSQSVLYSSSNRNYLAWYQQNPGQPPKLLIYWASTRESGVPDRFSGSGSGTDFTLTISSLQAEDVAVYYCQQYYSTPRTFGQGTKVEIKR
notes: parent antibody
GEO MEAN [4]: 132

The remaining lines, values ahead:

GEO MEAN [5]: 15
GEO MEAN (EGFR on the cell surface [6]): 618
B5: DVD2294 (bispecific antibody)
VH: EVQLVESGGGLVQPGGSLRLSCAASGFSLTNYGVHWVRQAPGKGLEWLGVGWSGGNTDYNTPFTSRLTINKDNSKNTVYLQMNSLRAEDTAVYYCARALTWYDYEFAYWGQGTLVTVSSASTKGPEVQLLESGGGLVQPGGSLRLSCAASGFTFSHYVMAWVRQAPGKGLEWVSSISSSGGWTLYADSVKGRFTISRDNSKNTLYLQMNSLRAEDTAVYYCTRGLKMATIFDYWGQGTLVTVSS
VL: DILLTQSPGTLSLSPGERATLSCRASQSIYTNIHWYQQKPGQAPRLLIKYASESISGIPDRFSGSGSGTDFTLTISRLEPEDFAVYYCQQNLNWPTTFGQGTKLEIKRTVAAPQSALTQPASVSGSPGQSITISCTGTSSDVGSYNVVSWYQQHPGKAPKLIIYEVSQRPSGVSNRFSGSKSGNTASLTISGLQTEDEADYYCCSYAGSSIFVIFGGGTKVTVL
notes: DVD-Ig, outer AB400 / inner AB116

GEO MEAN [4]: 127
B6: AB067 (antibody, V domains shown)
VH: EVQLLESGGGLVQPGGSLRLSCAASGFTFSHYVMAWVRQAPGKGLEWVSSISSSGGWTLYADSVKGRFTISRDNSKNTLYLQMNSLRAEDTAVYYCTRGLKMATIFDYWGQGTLVTVSS
VL: QSALTQPASVSGSPGQSITISCTGTSSDVGSYNVVSWYQQHPGKAPKLIIYEVSQRPSGVSNRFSGSKSGNTASLTISGLQTEDEADYYCCSYAGSSIFVIFGGGTKVTVLG
notes: parent antibody

binding result [1]: no binding (tested: 10-200 nM)
binding result [2]: no binding (tested: 10-200 nM)
B10: DVD2332 (bispecific antibody)
VH: QVQLQESGPGLVKPSEILSLTCTVSGGSISSHYWSWVRQPPGKGLEWIGYIYYSGSTNYNPSLKSRVTISVDTSKNQFSLNLSSVTAADTAVYYCARIPNYYDRSGYYPGYWYFDLWGRGTLVTVSSASTKGPEVQLLESGGGLVQPGGSLRLSCAASGFTFSHYVMAWVRQAPGKGLEWVSSISSSGGWTLYADSVKGRFTISRDNSKNTLYLQMNSLRAEDTAVYYCTRGLKMATIFDYWGQGTLVTVSS
VL: QAVLTQPSSLSAPPGASASLTCTLRSGFNVDSYRISWYQQKPGSPPQYLLRYKSDSDKQQGSGVPSRFSGSKDASANAGILLISGLQSEDEADYYCMIWHSSAWVFGGGTKLTVLRQPKAAPQSALTQPASVSGSPGQSITISCTGTSSDVGSYNVVSWYQQHPGKAPKLIIYEVSQRPSGVSNRFSGSKSGNTASLTISGLQTEDEADYYCCSYAGSSIFVIFGGGTKVTVL
notes: DVD-Ig, outer AB034 / inner AB116

GEO MEAN [5]: 20.6
GEO MEAN (EGFR on the cell surface [6]): 519
B11: DVD2292 (bispecific antibody)
VH: EVQLVESGGGLVQPGGSLRLSCAASGFSLTNYGVHWVRQAPGKGLEWLGVGWSGGNTDYNTPFTSRLTINKDNSKNTVYLQMNSLRAEDTAVYYCARALTWYDYEFAYWGQGTLVTVSSASTKGPEVQLVESGGGLVQPGGSLRLSCAASGFTFSIYSMNWVRQAPGKGLEWVSYISSSSSTIYYADSVKGRFTISRDNAKNSLYLQMNSLRDEDTAVYYCARDRGDFDAFDIWGQGTMVTVSS
VL: DILLTQSPGTLSLSPGERATLSCRASQSIYTNIHWYQQKPGQAPRLLIKYASESISGIPDRFSGSGSGTDFTLTISRLEPEDFAVYYCQQNLNWPTTFGQGTKLEIKRTVAAPDIQMTQSPSSLSASVGDRVTITCQASQDITNYLNWYQQKPGKAPKLLIYDASNLETGVPSRFSGSGSGTDFTFTISSLQPEDIATYNCQQCENFPITFGQGTRLEIK
notes: DVD-Ig, outer AB400 / inner AB063

GEO MEAN (EGFR on the cell surface [7]): 317
GEO MEAN [3]: 80
B12: DVD2295 (bispecific antibody)
VH: EVQLLESGGGLVQPGGSLRLSCAASGFTFSHYVMAWVRQAPGKGLEWVSSISSSGGWTLYADSVKGRFTISRDNSKNTLYLQMNSLRAEDTAVYYCTRGLKMATIFDYWGQGTLVTVSSASTKGPEVQLVESGGGLVQPGGSLRLSCAASGFSLTNYGVHWVRQAPGKGLEWLGVGWSGGNTDYNTPFTSRLTINKDNSKNTVYLQMNSLRAEDTAVYYCARALTWYDYEFAYWGQGTLVTVSS
VL: QSALTQPASVSGSPGQSITISCTGTSSDVGSYNVVSWYQQHPGKAPKLIIYEVSQRPSGVSNRFSGSKSGNTASLTISGLQTEDEADYYCCSYAGSSIFVIFGGGTKVTVLGQPKAAPDILLTQSPGTLSLSPGERATLSCRASQSIYTNIHWYQQKPGQAPRLLIKYASESISGIPDRFSGSGSGTDFTLTISRLEPEDFAVYYCQQNLNWPTTFGQGTKLEIK
notes: DVD-Ig, outer AB116 / inner AB400

Reference: patent publication US20130195871A1 (AbbVie / Abbott, published 2013)
